What all share (conditions): protein: recombinant; tags: C-terminal His6 (pETM13); blunt
Data set [1] deals with T1, P150 721-860 (WHD) (Homo sapiens, UniProt Q13111 721-860). Kind of data set: EMSA; about 21 uM DNA; EMSA: 20 mM Tris-HCl, 100 mM NaCl, 1 mM DTT, pH 7.5, 45 min on ice; 6% PAGE in 0.5X TBE on ice. In general terms: A gel shift assay detects complexes by their altered migration in electrophoresis.
Data set [2] has as its target T1, P150 721-860 (WHD). Kind of data set: EMSA; 21 uM DNA, 0-15 molar ratio, EtBr; EMSA: 20 mM Tris-HCl, 100 mM NaCl, 1 mM DTT, pH 7.5, 45 min on ice; 6% PAGE in 0.5X TBE on ice.
The target of another data set is P150 575-860 (ED + WHD) (Homo sapiens, UniProt Q13111 575-860). Briefly: EMSA; 2 uM DNA, 0-25 molar ratio; no complex detected; EMSA: 20 mM Tris-HCl, 100 mM NaCl, 1 mM DTT, pH 7.5, 45 min on ice; 6% PAGE in 0.5X TBE on ice.
The target of data set [3] is T1, P150 721-860 (WHD). Briefly: EMSA; 1 uM DNA, Sybr Gold; fit with Hill slope; EMSA: 20 mM Tris-HCl, 100 mM NaCl, 1 mM DTT, pH 7.5, 45 min on ice; 6% PAGE in 0.5X TBE on ice.

T1 sequence (Q13111 721-860): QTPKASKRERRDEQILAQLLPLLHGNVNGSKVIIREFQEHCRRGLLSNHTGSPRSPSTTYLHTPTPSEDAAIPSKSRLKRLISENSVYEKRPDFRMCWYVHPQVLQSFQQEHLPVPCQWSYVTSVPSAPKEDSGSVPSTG
Sequence of P150 575-860 (ED + WHD) (Q13111 575-860): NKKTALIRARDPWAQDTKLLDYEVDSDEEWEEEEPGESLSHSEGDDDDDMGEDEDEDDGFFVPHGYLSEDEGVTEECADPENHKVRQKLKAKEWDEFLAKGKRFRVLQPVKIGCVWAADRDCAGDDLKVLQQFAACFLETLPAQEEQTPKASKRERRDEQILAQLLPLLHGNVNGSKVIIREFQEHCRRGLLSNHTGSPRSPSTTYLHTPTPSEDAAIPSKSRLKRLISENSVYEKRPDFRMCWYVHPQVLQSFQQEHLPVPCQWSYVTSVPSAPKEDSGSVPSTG

B1: 16 bp AT rich dsDNA (dsDNA)
DNA 1: ATAATCGATATTCGTT
DNA 2: AACGAATATCGATTAT
As to B1, in the data set with P150 721-860 (WHD) [1], the binding result is “binds”.

B2: 16 bp GC rich dsDNA (dsDNA)
DNA 1: ATCGCCCGCGCACGCA
DNA 2: TGCGTGCGCGGGCGAT
With B2, in the data set with P150 721-860 (WHD) [1], the binding result is “binds”.

B3: 16 bp dsDNA (dsDNA)
DNA 1: TGCTACCGATCGATAC
DNA 2: GTATCGATCGGTAGCA
For B3, in the data set with P150 721-860 (WHD) [2], the binding result is “binds”.

B4: 58 bp dsDNA (dsDNA)
DNA 1: ATACATTTTATGACTGGAAACTTTTTTGTACAACACTCCAATAAACATTTTGATTTTA
DNA 2: TAAAATCAAAATGTTTATTGGAGTGTTGTACAAAAAAGTTTCCAGTCATAAAATGTAT
Turning to B4, the binding result in the data set with P150 575-860 (ED + WHD) was “no binding”. The Kd with P150 721-860 (WHD) [3] turned out to be 10.4 ± 0.5 µM.

Broadly, the Kd is the concentration at which binding is half-saturated.

Values taken from publication PMC8874411, “Biochemical and Structural Insights into the Winged Helix Domain of P150, the Largest Subunit of the Chromatin Assembly Factor 1”.
